From patent US20240059765A1 (ANNEXON, published 2024)

Target: human C1q (human, UniProt P02745 23-245; P02746 28-253; P02747 29-245)
Test: cell-based or functional assay

human C1q, sequence (P02745 23-245 limits assumed, chain 1 of 3): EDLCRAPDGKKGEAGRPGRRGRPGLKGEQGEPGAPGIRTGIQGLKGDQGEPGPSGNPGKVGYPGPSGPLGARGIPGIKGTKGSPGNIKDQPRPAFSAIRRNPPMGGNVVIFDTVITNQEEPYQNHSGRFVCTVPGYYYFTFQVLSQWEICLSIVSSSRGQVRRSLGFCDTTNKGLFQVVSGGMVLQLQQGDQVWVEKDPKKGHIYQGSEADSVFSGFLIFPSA
human C1q, sequence (P02746 28-253 limits assumed, chain 2 of 3): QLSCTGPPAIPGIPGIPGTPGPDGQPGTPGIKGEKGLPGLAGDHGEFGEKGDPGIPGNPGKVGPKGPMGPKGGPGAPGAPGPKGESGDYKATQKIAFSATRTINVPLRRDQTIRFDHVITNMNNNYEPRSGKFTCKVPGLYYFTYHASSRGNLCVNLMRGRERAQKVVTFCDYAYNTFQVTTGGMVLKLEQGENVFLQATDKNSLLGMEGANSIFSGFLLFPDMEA
human C1q, sequence (P02747 29-245 limits assumed, chain 3 of 3): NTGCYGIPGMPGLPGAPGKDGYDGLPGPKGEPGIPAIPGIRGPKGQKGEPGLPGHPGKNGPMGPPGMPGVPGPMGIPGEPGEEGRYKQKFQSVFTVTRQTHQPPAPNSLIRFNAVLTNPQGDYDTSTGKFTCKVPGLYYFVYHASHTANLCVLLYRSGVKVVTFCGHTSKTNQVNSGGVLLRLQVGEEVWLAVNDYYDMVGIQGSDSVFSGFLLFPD

B1: FabA (Fab)
heavy: QVQLVQSGAELKKPGASVKVSCKSSGYHFTSYWMHWVKQAPGQGLEWIGVIHPNSGSINYNEKFESRVTITVDKSTSTAYMELSSLRSEDTAVYYCAGERDSTEVLPMDYWGQGTTVTVSSASTKGPSVFPLAPSSKSTSGGTAALGCLVKDYFPEPVTVSWNSGALTSGVHTFPAVLQSSGLYSLSSVVTVPSSSLGTQTYICNVNHKPSNTKVDKKVEPKSCDKTHT
light: DVQITQSPSSLSASLGERATINCRASKSINKYLAWYQQKPGKAPKLLIYSGSTLQSGIPARFSGSGSGTDFTLTISSLEPEDFAMYYCQQHNEYPLTFGQGTKLEIKRTVAAPSVFIFPPSDEQLKSGTASVVCLLNNFYPREAKVQWKVDNALQSGNSQESVTEQDSKDSTYSLSSTLTLSKADYEKHKVYACEVTHQGLSSPVTKSFNRGEC
IC50 of block of the classical pathway (Weislab ELISA, IgM-coated wells, C5b-9 detection): ≤ 0.3 µg/mL
